Read-outs that look alike come from different tables or passages of the source.
B1: K312C Acrylodan: tsGBP2_C312 (SEQ ID NO: 33) Acrylodan conjugate (conjugate)
chain: MKLEIFSWWAGDEGPALEALIRLYKQKYPGVEVINATVTGGAGVNAKAVLKTRMLGGDPPDTFQVHAGQELIGTWVVADRMEDLTSLFRQEGWLQAFPKGLIDLLSYKGGIWSVPVNIHRSNVMWYIPAKLKEWGVTPPKTWAEFLATAQTLKRKGLEAPLALGENWTQQHLWESVALATLGADGWNNLWSGKLKFTDPKAVAVWETFGKVLDAANKDAAGLSWQQAVDRVVQGKAAFNIMGDWAAGYMSTTLKLKPGTDFAWTPSPGTSGIFMMLSDSFGLPKGAKNRQNAINWLKLVGSKEGQDTFNPLCGSIAARLDSDPAKYNAYGQSAMKDWKSNRIVGSLVHGAVAPESFMSQFGTVMEIFLQSRNPQAAANAAQAIANQVGLGRGGSHHHHHH
modifications: Acrylodan conjugate; tsGBP2_C312 (312C substitution mutant with signal peptide replaced with M and a GGSHHHHHH at C-terminus)
B2: H348 Acrylodan: tsGBP2_C348 (SEQ ID NO: 35) Acrylodan conjugate (conjugate)
chain: MKLEIFSWWAGDEGPALEALIRLYKQKYPGVEVINATVTGGAGVNAKAVLKTRMLGGDPPDTFQVHAGQELIGTWVVADRMEDLTSLFRQEGWLQAFPKGLIDLLSYKGGIWSVPVNIHRSNVMWYIPAKLKEWGVTPPKTWAEFLATAQTLKRKGLEAPLALGENWTQQHLWESVALATLGADGWNNLWSGKLKFTDPKAVAVWETFGKVLDAANKDAAGLSWQQAVDRVVQGKAAFNIMGDWAAGYMSTTLKLKPGTDFAWTPSPGTSGIFMMLSDSFGLPKGAKNRQNAINWLKLVGSKEGQDTFNPLKGSIAARLDSDPAKYNAYGQSAMKDWKSNRIVGSLVCGAVAPESFMSQFGTVMEIFLQSRNPQAAANAAQAIANQVGLGRGGSHHHHHH
modifications: Acrylodan conjugate; tsGBP2_C348 (348C substitution mutant with signal peptide replaced with M and a GGSHHHHHH at C-terminus)
B3: M357 Acrylodan: tsGBP2_C357 (SEQ ID NO: 36) Acrylodan conjugate (conjugate)
chain: MKLEIFSWWAGDEGPALEALIRLYKQKYPGVEVINATVTGGAGVNAKAVLKTRMLGGDPPDTFQVHAGQELIGTWVVADRMEDLTSLFRQEGWLQAFPKGLIDLLSYKGGIWSVPVNIHRSNVMWYIPAKLKEWGVTPPKTWAEFLATAQTLKRKGLEAPLALGENWTQQHLWESVALATLGADGWNNLWSGKLKFTDPKAVAVWETFGKVLDAANKDAAGLSWQQAVDRVVQGKAAFNIMGDWAAGYMSTTLKLKPGTDFAWTPSPGTSGIFMMLSDSFGLPKGAKNRQNAINWLKLVGSKEGQDTFNPLKGSIAARLDSDPAKYNAYGQSAMKDWKSNRIVGSLVHGAVAPESFCSQFGTVMEIFLQSRNPQAAANAAQAIANQVGLGRGGSHHHHHH
modifications: Acrylodan conjugate; tsGBP2_C357 (357C substitution mutant with signal peptide replaced with M and a GGSHHHHHH at C-terminus)
B4: W337 Acrylodan: tsGBP2_C337 (SEQ ID NO: 34) Acrylodan conjugate (conjugate)
chain: MKLEIFSWWAGDEGPALEALIRLYKQKYPGVEVINATVTGGAGVNAKAVLKTRMLGGDPPDTFQVHAGQELIGTWVVADRMEDLTSLFRQEGWLQAFPKGLIDLLSYKGGIWSVPVNIHRSNVMWYIPAKLKEWGVTPPKTWAEFLATAQTLKRKGLEAPLALGENWTQQHLWESVALATLGADGWNNLWSGKLKFTDPKAVAVWETFGKVLDAANKDAAGLSWQQAVDRVVQGKAAFNIMGDWAAGYMSTTLKLKPGTDFAWTPSPGTSGIFMMLSDSFGLPKGAKNRQNAINWLKLVGSKEGQDTFNPLKGSIAARLDSDPAKYNAYGQSAMKDCKSNRIVGSLVHGAVAPESFMSQFGTVMEIFLQSRNPQAAANAAQAIANQVGLGRGGSHHHHHH
modifications: Acrylodan conjugate; tsGBP2_C337 (337C substitution mutant with signal peptide replaced with M and a GGSHHHHHH at C-terminus)
B5: K312C Badan: tsGBP2_C312 (SEQ ID NO: 33) Badan conjugate (conjugate)
chain: MKLEIFSWWAGDEGPALEALIRLYKQKYPGVEVINATVTGGAGVNAKAVLKTRMLGGDPPDTFQVHAGQELIGTWVVADRMEDLTSLFRQEGWLQAFPKGLIDLLSYKGGIWSVPVNIHRSNVMWYIPAKLKEWGVTPPKTWAEFLATAQTLKRKGLEAPLALGENWTQQHLWESVALATLGADGWNNLWSGKLKFTDPKAVAVWETFGKVLDAANKDAAGLSWQQAVDRVVQGKAAFNIMGDWAAGYMSTTLKLKPGTDFAWTPSPGTSGIFMMLSDSFGLPKGAKNRQNAINWLKLVGSKEGQDTFNPLCGSIAARLDSDPAKYNAYGQSAMKDWKSNRIVGSLVHGAVAPESFMSQFGTVMEIFLQSRNPQAAANAAQAIANQVGLGRGGSHHHHHH
modifications: Badan conjugate; tsGBP2_C312 (312C substitution mutant with signal peptide replaced with M and a GGSHHHHHH at C-terminus)
B6: M357 Badan: tsGBP2_C357 (SEQ ID NO: 36) Badan conjugate (conjugate)
chain: MKLEIFSWWAGDEGPALEALIRLYKQKYPGVEVINATVTGGAGVNAKAVLKTRMLGGDPPDTFQVHAGQELIGTWVVADRMEDLTSLFRQEGWLQAFPKGLIDLLSYKGGIWSVPVNIHRSNVMWYIPAKLKEWGVTPPKTWAEFLATAQTLKRKGLEAPLALGENWTQQHLWESVALATLGADGWNNLWSGKLKFTDPKAVAVWETFGKVLDAANKDAAGLSWQQAVDRVVQGKAAFNIMGDWAAGYMSTTLKLKPGTDFAWTPSPGTSGIFMMLSDSFGLPKGAKNRQNAINWLKLVGSKEGQDTFNPLKGSIAARLDSDPAKYNAYGQSAMKDWKSNRIVGSLVHGAVAPESFCSQFGTVMEIFLQSRNPQAAANAAQAIANQVGLGRGGSHHHHHH
modifications: Badan conjugate; tsGBP2_C357 (357C substitution mutant with signal peptide replaced with M and a GGSHHHHHH at C-terminus)
B7: H348 Badan: tsGBP2_C348 (SEQ ID NO: 35) Badan conjugate (conjugate)
chain: MKLEIFSWWAGDEGPALEALIRLYKQKYPGVEVINATVTGGAGVNAKAVLKTRMLGGDPPDTFQVHAGQELIGTWVVADRMEDLTSLFRQEGWLQAFPKGLIDLLSYKGGIWSVPVNIHRSNVMWYIPAKLKEWGVTPPKTWAEFLATAQTLKRKGLEAPLALGENWTQQHLWESVALATLGADGWNNLWSGKLKFTDPKAVAVWETFGKVLDAANKDAAGLSWQQAVDRVVQGKAAFNIMGDWAAGYMSTTLKLKPGTDFAWTPSPGTSGIFMMLSDSFGLPKGAKNRQNAINWLKLVGSKEGQDTFNPLKGSIAARLDSDPAKYNAYGQSAMKDWKSNRIVGSLVCGAVAPESFMSQFGTVMEIFLQSRNPQAAANAAQAIANQVGLGRGGSHHHHHH
modifications: Badan conjugate; tsGBP2_C348 (348C substitution mutant with signal peptide replaced with M and a GGSHHHHHH at C-terminus)
B8: W8C Acrylodan: tsGBP2_C8 (SEQ ID NO: 17) Acrylodan conjugate (conjugate)
chain: MKLEIFSCWAGDEGPALEALIRLYKQKYPGVEVINATVTGGAGVNAKAVLKTRMLGGDPPDTFQVHAGQELIGTWVVADRMEDLTSLFRQEGWLQAFPKGLIDLLSYKGGIWSVPVNIHRSNVMWYIPAKLKEWGVTPPKTWAEFLATAQTLKRKGLEAPLALGENWTQQHLWESVALATLGADGWNNLWSGKLKFTDPKAVAVWETFGKVLDAANKDAAGLSWQQAVDRVVQGKAAFNIMGDWAAGYMSTTLKLKPGTDFAWTPSPGTSGIFMMLSDSFGLPKGAKNRQNAINWLKLVGSKEGQDTFNPLKGSIAARLDSDPAKYNAYGQSAMKDWKSNRIVGSLVHGAVAPESFMSQFGTVMEIFLQSRNPQAAANAAQAIANQVGLGRGGSHHHHHH
modifications: Acrylodan conjugate; tsGBP2_C8 (8C substitution mutant with signal peptide replaced with M and a GGSHHHHHH at C-terminus)
B9: W337 Badan: tsGBP2_C337 (SEQ ID NO: 34) Badan conjugate (conjugate)
chain: MKLEIFSWWAGDEGPALEALIRLYKQKYPGVEVINATVTGGAGVNAKAVLKTRMLGGDPPDTFQVHAGQELIGTWVVADRMEDLTSLFRQEGWLQAFPKGLIDLLSYKGGIWSVPVNIHRSNVMWYIPAKLKEWGVTPPKTWAEFLATAQTLKRKGLEAPLALGENWTQQHLWESVALATLGADGWNNLWSGKLKFTDPKAVAVWETFGKVLDAANKDAAGLSWQQAVDRVVQGKAAFNIMGDWAAGYMSTTLKLKPGTDFAWTPSPGTSGIFMMLSDSFGLPKGAKNRQNAINWLKLVGSKEGQDTFNPLKGSIAARLDSDPAKYNAYGQSAMKDCKSNRIVGSLVHGAVAPESFMSQFGTVMEIFLQSRNPQAAANAAQAIANQVGLGRGGSHHHHHH
modifications: Badan conjugate; tsGBP2_C337 (337C substitution mutant with signal peptide replaced with M and a GGSHHHHHH at C-terminus)

Test: Ratiometric fluorescence glucose titration of fluorescent conjugates
Format: binding
Parameters: key to Shape (fluorescence response to glucose) / Change (fluorescence response to glucose): m, monochromatic; d, dichromatic (i.e. spectral shape change); 0, no change
Conditions: tsGBP2 cysteine scan; for Kd: ratiometric fit at λ1 and λ2
Outline: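 Single-cysteine glucose-binding protein mutants labelled site-specifically with thiol-reactive environmentally sensitive fluorophores; emission spectra recorded during glucose titration to detect ligand-mediated intensity and spectral-shape changes for ratiometric read-out. Temperature- and ligand-dependent fluorescence landscapes acquired in 1K steps; binding fitted to single-site fractional saturation.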

[1] = Acrylodan conjugate, read-out: Kd ^appKd

| Molecule | Shape (fluorescence response to glucose) (Acrylodan conjugate) | Shape (fluorescence response to glucose) (Badan conjugate) | further results |
| --- | --- | --- | --- |
| B1 | d | – | Kd [1]: 0.009 mM; Kd (Acrylodan conjugate, read-out: Kd ^trueKd): 0.01 mM |
| B2 | m | – | Kd [1]: ~1.3 mM |
| B3 | 0 | – | – |
| B4 | m | – | – |
| B5 | – | m | – |
| B6 | – | m | – |
| B7 | – | d | Kd (Badan conjugate, read-out: Kd ^appKd): ~4.3 mM; Kd (Badan conjugate, read-out: Kd ^trueKd): ~5.2 mM |
| B8 | m | – | – |
| B9 | – | 0 | – |

Source: patent US11402384B2 (Duke University, priority 2015, dated 2022)
